Values joined by “and” are separate entries in the source; they are usually repeats but may differ in a detail not shown here. Identical values can stand only once.
Key:
[1] = target: TSha1 K+ channel from trout (trout); experiment: open channel binding, ratio of Table III values
[2] = target: TSha1 K+ channel from trout (trout); experiment: closed channel binding, ratio of Table III values
[3] = target: Shaker-Δ6-46 K+ channel (UniProt P08510); experiment: comparison of open- and closed-state KD, voltage clamp in Xenopus oocytes
Sequence of Shaker-Δ6-46 K+ channel (P08510 other isoform, or with tags, fused parts or gaps mutant): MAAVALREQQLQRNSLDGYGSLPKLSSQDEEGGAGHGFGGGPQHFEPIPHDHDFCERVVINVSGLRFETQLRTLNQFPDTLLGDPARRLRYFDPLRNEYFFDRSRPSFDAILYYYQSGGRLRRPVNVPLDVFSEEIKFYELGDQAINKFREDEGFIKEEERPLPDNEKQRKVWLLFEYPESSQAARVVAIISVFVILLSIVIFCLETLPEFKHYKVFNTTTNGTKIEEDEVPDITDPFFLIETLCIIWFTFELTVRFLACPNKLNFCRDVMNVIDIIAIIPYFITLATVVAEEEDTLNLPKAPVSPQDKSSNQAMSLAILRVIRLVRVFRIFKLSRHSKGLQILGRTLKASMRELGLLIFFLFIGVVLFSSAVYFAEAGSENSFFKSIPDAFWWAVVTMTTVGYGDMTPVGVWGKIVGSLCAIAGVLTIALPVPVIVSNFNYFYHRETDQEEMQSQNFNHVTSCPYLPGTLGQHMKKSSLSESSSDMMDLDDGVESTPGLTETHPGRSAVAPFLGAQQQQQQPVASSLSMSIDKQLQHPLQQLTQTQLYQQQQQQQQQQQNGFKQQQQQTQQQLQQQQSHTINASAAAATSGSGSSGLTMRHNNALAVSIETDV

Sequence of TSha1 K+ channel from trout (trout) (Q9I830 whole entry): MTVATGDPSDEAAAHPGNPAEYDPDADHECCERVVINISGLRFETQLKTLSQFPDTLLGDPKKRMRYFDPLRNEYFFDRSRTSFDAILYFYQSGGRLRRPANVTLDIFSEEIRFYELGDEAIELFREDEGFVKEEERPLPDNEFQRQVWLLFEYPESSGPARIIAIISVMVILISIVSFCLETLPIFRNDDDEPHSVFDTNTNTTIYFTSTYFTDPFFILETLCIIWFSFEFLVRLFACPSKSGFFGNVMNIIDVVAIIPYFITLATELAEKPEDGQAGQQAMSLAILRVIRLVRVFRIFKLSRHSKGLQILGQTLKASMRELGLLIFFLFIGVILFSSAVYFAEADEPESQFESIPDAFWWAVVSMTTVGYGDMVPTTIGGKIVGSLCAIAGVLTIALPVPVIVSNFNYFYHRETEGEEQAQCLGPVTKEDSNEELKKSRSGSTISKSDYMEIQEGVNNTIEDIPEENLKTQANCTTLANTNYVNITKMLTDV

With κM-conotoxin RIIIK (peptide) the fold higher k(O)on than in the Shaker-Δ6-46 channel [1] was 3 fold, the fold smaller k(O)off than in the Shaker-Δ6-46 channel [1] was 20 fold and the fold higher k(C)on than in the Shaker-Δ6-46 channel [2] was 4 fold. The fold lower affinity for the open state (0 mV) than for the closed state [3] was 3 fold and 4 fold.

Reference: patent publication US20080274976A1
